Experimental data as given in patent US20220195059A1, “Rank Pathway Inhibitors in Combination with CDK Inhibitors” (INSTITUTO DE MEDICINA MOLECULAR JOÃO LOBO ANTUNES, priority 2019, published 2022).

Key:
MCF-7 RANK OE xenografts = assay: MCF-7^OE orthotopic xenograft growth with exogenous sRANKL; format: in vivo, NSG mice; details: human sRANKL 0.5 mg/every 48 h s.c. vs vehicle; eight weeks
Method: Nod scid gamma (NSG) mice were inoculated in the 2nd thoracic mammary fat pad with MCF-7 RANK OE GFP+Luc+ (RANK OE) cells (n=3-4/group). Mice were treated with human sRANKL 0.5 mg/every 48 h s.c. or vehicle (PBS). Tumors were imaged by bioluminescence every week post tumor inoculation untill the end of the experience (eight weeks). FIG. 10A is a graph of the total flux (p/s) measured at the end of experiment. FIG. 10B is a graph of tumor weight at the time of sacrifice for tumors derived from MCF-7 OE cells taken from mice treated with (+) or without (−) sRANKL. FIG. 10C is a graph of the Ki67-positive stained cells from tumors derived from MCF-7 OE cells taken from mice treated with (+) or without (−) sRANKL. Data is presented as mean±SEM. p-value was calculated using 2-way ANOVA or unpaired t-test, *p<0.05, **p<0.01, ***p<0.001.
Tumor growth was monitored weekly by luminescence analysis.
To determine whether the decreased proliferation rate was due to RANKL availability, NSG mice were inoculated with one of Parental, RANK OE, or Mix cells, as described above, and treated with human soluble RANKL or vehicle control subcutaneously.

[1] = system: phosphorylation of IkBα, NFkB, ERK and AKT in MCF-7 OE and T47D OE cells; assay: RANK signalling after sRANKL stimulation of RANK OE cells, western blot; format: cell-based, human; details: 1 μg/mL sRANKL
Method: FIG. 1C provides data that show the activation of RANK signaling pathway. After 24 h in low-serum medium, MCF-7 and T47D cells, or their RANK-overexpressing counterparts MCF-7^OE and T47D^OE, were stimulated with 1 μg/mL soluble RANK ligand (sRANKL) for 0, 5, 10, 20, 40, or 60 min (top panel) or 0, 5, 10, or 25 min (bottom panel). Cell lysates were western blotted using the antibody specific for the indicated protein (IκBα; NK-κB p65; ERK1/2; AKT), or for a phosphorylated version thereof (p-IκBα (Ser32); p-NK-κB p65 (Ser536); p-ERK1/2; p-AKT). β-Actin was used as loading control.
(§1) For this purpose, 4×10^5 cells were seeded in 6-well plates for 24 h, and serum-starved in low-serum medium (0,1% FBS, 1% Pen/Step) for another 24 h. […] Total protein was quantified using Pierce BCA Protein Assay Kit (ThermoSicentific), according to manufacturer's instructions. […]
Membranes were blocked for 1 h at room temperature (RT) in 5% Non-Fat Dry Milk (NFDM) in PBS-0.1% Tween (PBST) for β-actin; or in 5% bovine serum albumin (BSA) (Santa Cruz) for other antibodies. […] Proteins were detected using a Novex® ECL HRP chemiluminescent substrate reagent kit (Invitrogen) according to the manufacturer's instructions, and x-ray films (Fujifilm) developed in a Curix 60 processor (AGFA), or the Amersham™ Imager 680 (GE Healthcare Life Sciences). […]

[2] = system: RANKL-driven RANK pathway activation (ERK, AKT phosphorylation); assay: RANKL stimulation and RANKL neutralization, western blot; format: cell-based, human; details: 1 μg/ml RANKL; serum starved cells
Method: It was also confirmed that OPG-Fc is able to neutralize RANKL. Protein expression was assessed by western blot. Cells were seeded in 6-well plates, serum starved for 24 h, and exposed to 1 μg/ml RANKL for the indicated time points (FIG. 26A). For RANKL neutralization (FIG. 26B), RANKL was previously incubated for 60 min at 37° C. in serum-depleted medium±100 ng/ml OPG-Fc or 2.5 μg/ml MAB626, and proteins analyzed after 60 min. β-Actin was used as loading control and band intensity was quantified using FiJi. […] In the presence of OPG-Fc or the anti-RANKL monoclonal antibody MAB626, RANKL-driven RANK pathway activation was decreased (FIG. 26B).
as §1
Membranes were blocked for 1 h at room temperature (RT) in 5% Non-Fat Dry Milk (NFDM) in PBS-0.1% Tween (PBST) for β-actin; or in 5% bovine serum albumin (BSA) (Santa Cruz) for other antibodies. […] Proteins were detected using a Novex® ECL HRP chemiluminescent substrate reagent kit (Invitrogen) according to the manufacturer's instructions, and x-ray films (Fujifilm) developed in a Curix 60 processor (AGFA), or the Amersham™ Imager 680 (GE Healthcare Life Sciences).

B1: sRANKL: soluble RANK ligand used as stimulus (protein)
chain: EKAMVDGSWLDLAKRSKLEAQPFAHLTINATDIPSGSHKVSLSSWYHDRGWAKISNMTFSNGKLIVNQDGFYYLYANICFRHHETSGDLATEYLQLMVYVTKTSIKIPSSHTLMKGGSTKYWSGNSEFHFYSINVGGFFKLRSGEEISIEVSNPSLLDPDQDATYFGAFKVRDID
Q: Which results are given for B1?
A: tumor growth (MCF-7 RANK OE xenografts): did not affect; RANK pathway activity after stimulation [1]: increased RANK pathway activity; phosphorylation of RANK-downstream factors, like ERK and AKT [2]: drives the phosphorylation
